Test results from patent US8986682B2, “Method to increase the absorption of unsaturated fatty acids by human infants” (Swedish Orphan Biovitrum AB (publ), priority 2010, dated 2015).

Assay: Specific activity with PNPB substrate, sodium cholate as bile-salt activator
Assay type: biochemical
Conditions: after HA-HPLC and SE-HPLC purification
Procedure: Differences in functional properties are observed between rhBSSL-CHO and BSSL-MAM and from rhBSSL-OVI. The specific activity of rhBSSL-CHO is observed to be higher than that of the other forms of BSSL. The specific activities of BSSL-MAM and rhBSSL-OVI are only 80% of that of rhBSSL-CHO based on mass. Each sample is specifically purified by HA-HPLC and SE-HPLC before determination of specific activity. Specific activity is determined using 4-nitrophenyl ester butyric acid (PNPB) as a substrate for BSSL, and detection of the release of 4-nitrophenol. Briefly, a dilution series of rhBSSL (for example, from 20 to 160 ng activity/mL) is prepared in PBS with 0.1% BSA. 200 μl of these rhBSSL solutions is added to 25 μl of an activation solution containing 20 mM sodium cholate (as bile-salt activator) in PBS with 0.1% BSA. These solutions are preincubated in a spectrophotometer at 27° C. for 5 minutes. Just before measuring, 25 μl of a well-mixed substrate solution containing 5 mM PNPB in PBS-Tween is added. The formation of 4-nitrophenol can be detected by its absorbance at 400 nm and the increase in absorbance is measured during 90 seconds. The active amount of BSSL is determined using a standard curve of an rhBSSL reference standard.

B1: rhBSSL: recombinant human bile-salt-stimulated lipase, SEQ ID. NO. 1, expressed from recombinant CHO cells; used in both clinical trials (protein, listed as Homo sapiens)
chain: AKLGAVYTEGGFVEGVNKKLGLLGDSVDIFKGIPFAAPTKALENPQPHPGWQGTLKAKNFKKRCLQATITQDSTYGDEDCLYLNIWVPQGRKQVSRDLPVMIWIYGGAFLMGSGHGANFLNNYLYDGEEIATRGNVIVVTFNYRVGPLGFLSTGDANLPGNYGLRDQHMAIAWVKRNIAAFGGDPNNITLFGESAGGASVSLQTLSPYNKGLIRRAISQSGVALSPWVIQKNPLFWAKKVAEKVGCPVGDAARMAQCLKVTDPRALTLAYKVPLAGLEYPMLHYVGFVPVIDGDFIPADPINLYANAADIDYIAGTNNMDGHIFASIDMPAINKGNKKVTEEDFYKLVSEFTITKGLRGAKTTFDVYTESWAQDPSQENKKKTVVDFETDVLFLVPTEIALAQHRANAKSAKTYAYLFSHPSRMPVYPKWVGADHADDIQYVFGKPFATPTGYRPQDRTVSKAMIAYWTNFAKTGDPNMGDSAVPTHWEPYTTENSGYLEITKKMGSSSMKRSLRTNFLRYWTLTYLALPTVTDQEATPVPPTGDSEATPVPPTGDSETAPVPPTGDSGAPPVPPTGDSGAPPVPPTGDSGAPPVPPTGDSGAPPVPPTGDSGAPPVPPTGDSGAPPVPPTGDSGAPPVPPTGDAGPPPVPPTGDSGAPPVPPTGDSGAPPVTPTGDSETAPVPPTGDSGAPPVPPTGDSEAAPVPPTDDSKEAQMPAVIRF
- Specific activity compared with the other forms of BSSL: higher
